The source of these data is the RNAGym collection of RNA variant scans (doi:10.7554/elife.80360).

Sequences and labels used below:
B1: HDV Ribozyme (parent)
chain: GGCCGGCAUGGUCCCAGCCUCCUCGCUGGCGCCGGCUGGGCAACAUUCCGAGGGGACCGUCCCCUCGGUAAUGGCGAAUGGGACCCA

In this series the parent is B1. Briefly: self-cleavage, relative activity (ratio to wild type); higher = more cleavage; co-transcriptional.
As to GGCCGGCAUGGUCCCAGCCUCGUCGCUAGCGCCGGCUGGGCAACAUUCCGAGGGGACCGUCCCCUCGGUAAUGGCGAAUGGGACCCA [C22G G28A], the self-cleavage is 0.0462.
As for GGCCGGCAUGGUCCCAGCCUCAACGCUGGCGCCGGCUGGGCAACAUUCCGAGGGGACCGUCCCCUCGGUAAUGGCGAAUGGGACCCA [C22A U23A], the self-cleavage was 0.224.
Turning to GGCCGGCAUGGUCCCAGCCUCGUCGCUGGCGCCGGCUGGGCAAAAUUCCGAGGGGACCGUCCCCUCGGUAAUGGCGAAUGGGACCCA [C22G C44A], the self-cleavage worked out at 0.0426.
Take GGCCGGCAUGGUCCCAGCCUCAUCGCUGGCGCCGGCUGGGCAACAUUCCGAGGGGACCGUCCCCUCGGUAAGGGCGAAUGGGACCCA [C22A U72G]: the self-cleavage was 0.332.
The same measure for GGCCGGCAUGGUCCCAGCCUCAUCGCUGGCGCCGGCUGGGCAACAUUCCGAGGGGACCGUCCCCUCGGUAAAGGCGAAUGGGACCCA [C22A U72A]: 0.0665; for GGCCGGCAUGGUCCCAGCCUCGUCGCUGGCGCCGGCUGGGCAACAUUCCGAGGGGACCGUCCCCUCGGUAAUGGCGAAUGGGCCCCA [C22G A83C]: 0.0898; for GGCCGGCAUGGUCCCAGCCUCGUCGCUGGCGCCGGCUGGGCAACAUUCCGAGGGGACCGUCCCCUCGGUAAUGGCGAAUGGGACCAA [C22G C86A]: 0.106.
The same measure for GGCCGGCAUGGUCCCAGCCUCGUCGCUGGCGCCGGCUGGGCAACAUUCCGAGGGGACCGUCCCCUCGGUAAUGGCGAAUGGGACCUA [C22G C86U]: 0.0923; for GGCCGGCAUGGUCCCAGCCUCAUCGCUGGCGCCGGCUGGGCAACAUUCCGAGGGGACCGACCCCUCGGUAAUGGCGAAUGGGACCCA [C22A U60A]: 0.326; for GGCCGGCAUGGUCCCAGCCUCGUCGCUGGCGCCGGCUGGGAAACAUUCCGAGGGGACCGUCCCCUCGGUAAUGGCGAAUGGGACCCA [C22G C41A]: 0.0346.
The same measure for GGCCGGCAUGGUCCCAGCCUCGUCGCUGGCGCCGGCUGGGCAACAUUCCGAGGGGACCGUCCUCUCGGUAAUGGCGAAUGGGACCCA [C22G C63U]: 0.147.
For the variant GGCCGGCAUGGUCCCAGCCUCGUCGCUGGCGCCGGCUGGGCAACAUUCCGAGGGGACCGUCCCUUCGGUAAUGGCGAAUGGGACCCA [C22G C64U], the self-cleavage was 0.0536.
The same measure for GGCCGGCAUGGUCCCAGCCUCGUCGCUGGCGCCGGCUGGGCAACAUUCCGAGGGGACCGUCCCCUCGGUAAUGGAGAAUGGGACCCA [C22G C75A]: 0; for GGCCGGCAUGGUCCCAGCCUCGUCGCUGGCGCCGGCUGGGCAACAUUCCGAGGGGACCGUCCCCUCGGUAAUGGGGAAUGGGACCCA [C22G C75G]: 0.181.
Consider GGCCGGCAUGGUCCCAGCCUCGUCGCUGGCGCCGGCUGGGCAACAUUCCGAGGGGACCGUCCCCUAGGUAAUGGCGAAUGGGACCCA [C22G C66A], for which the self-cleavage stood at 0.0692.
The same measure for GGCCGGCAUGGUCCCAGCCUCAUCGCUGGCGCCGGCUGGGCAACAUUCCGAGGGGACCGUCCCCCCGGUAAUGGCGAAUGGGACCCA [C22A U65C]: 0.446; for GGCCGGCAUGGUCCCAGCCUCGUCGCUGGCGCCGGCUGGGCAACAUUCCGAGGGGACCGUACCCUCGGUAAUGGCGAAUGGGACCCA [C22G C61A]: 0.145; for GGCCGGCAUGGUCCCAGCCUCGUCGGUGGCGCCGGCUGGGCAACAUUCCGAGGGGACCGUCCCCUCGGUAAUGGCGAAUGGGACCCA [C22G C26G]: 0.
Regarding GGCCGGCAUGGUCCCAGCCUCGUCGUUGGCGCCGGCUGGGCAACAUUCCGAGGGGACCGUCCCCUCGGUAAUGGCGAAUGGGACCCA [C22G C26U], the self-cleavage was 0.208.
In the case of GGCCGGCAUGGUCCCAGCCUCAUCGCUGGCGCCGGCGGGGCAACAUUCCGAGGGGACCGUCCCCUCGGUAAUGGCGAAUGGGACCCA [C22A U37G], the self-cleavage was found to be 0.0462.
The same measure for GGCCGGCAUGGUCCCAGCCUCAUCGCUGGCGCCGGCCGGGCAACAUUCCGAGGGGACCGUCCCCUCGGUAAUGGCGAAUGGGACCCA [C22A U37C]: 0.0723; for GGCCGGCAUGGUCCCAGCCUCAUCGCUGGCGCCGGCUGGGCAACAUUCCGAGGGGACCGUCCCCUCGGUAAUGGCGAAUGAGACCCA [C22A G81A]: 0.205; for GGCCGGCAUGGUCCCAGCCUCGUAGCUGGCGCCGGCUGGGCAACAUUCCGAGGGGACCGUCCCCUCGGUAAUGGCGAAUGGGACCCA [C22G C24A]: 0.0396.
As for GGCCGGCAUGGUCCCAGCCUCGUGGCUGGCGCCGGCUGGGCAACAUUCCGAGGGGACCGUCCCCUCGGUAAUGGCGAAUGGGACCCA [C22G C24G], the self-cleavage was 0.0339.
In the case of GGCCGGCAUGGUCCCAGCCUCGUCGCUGGCGCCGGCUGGGCAACAUUUCGAGGGGACCGUCCCCUCGGUAAUGGCGAAUGGGACCCA [C22G C48U], the self-cleavage turned out to be 0.0594.
Regarding GGCCGGCAUGGUCCCAGCCUCGUCGCUGGCGCCGGCUGGGCAACAUUCCGAGGGGACCGUCUCCUCGGUAAUGGCGAAUGGGACCCA [C22G C62U], the self-cleavage was determined as 0.0346.
The same measure for GGCCGGCAUGGUCCCAGCCUCGUCGCUGGCGCCGGCUGGGCAACAUUCCGAGGGGGCCGUCCCCUCGGUAAUGGCGAAUGGGACCCA [C22G A56G]: 0.0875; for GGCCGGCAUGGUCCCAGCCUCGUCGCUGGCGCCGGUUGGGCAACAUUCCGAGGGGACCGUCCCCUCGGUAAUGGCGAAUGGGACCCA [C22G C36U]: 0.108.
In the case of GGCCGGCAUGGUCCCAGCCUCGUCGCUGGCGCCGGCUGGGCAACAUUCCGAGGGGACCGUCCCCUCGGUCAUGGCGAAUGGGACCCA [C22G A70C], the self-cleavage was found to be 0.0489.
The same measure for GGCCGGCAUGGUCCCAGCCUCGUCGCUGGCGCCGGCUGGGCAACAUUCUGAGGGGACCGUCCCCUCGGUAAUGGCGAAUGGGACCCA [C22G C49U]: 0.0639; for GGCCGGCAUGGUCCCAGCCUCAUCGCAGGCGCCGGCUGGGCAACAUUCCGAGGGGACCGUCCCCUCGGUAAUGGCGAAUGGGACCCA [C22A U27A]: 0.0573; for GGCCGGCAUGGUCCCAGCCUCAUCGCCGGCGCCGGCUGGGCAACAUUCCGAGGGGACCGUCCCCUCGGUAAUGGCGAAUGGGACCCA [C22A U27C]: 0.317.
